Assay: yeast display, Sf9 membrane polyspecificity reagent, FACS + sequencing; frameworks hold sequencing errors
Outline: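 Nanobodies from a synthetic yeast display library (Saccharomyces cerevisiae BJ5465), induced 36–48 hours with galactose, were stained 1 hour at 4 °C with 10% biotinylated, detergent-solubilized Sf9 membrane reagent, enriched on streptavidin microbeads, then FACS-sorted. Anti-HA (expression) and streptavidin (reagent binding) fluorescence set low and high (top ~1%) gates. Polyreactivity labels come from the gate of origin. Genes were colony-PCR amplified, MiSeq 2 × 250 sequenced and filtered by CDR length.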
With “QVQLVESGGGLVQAGGSLRLSCAASGSTFPFYAMGWYRQAPGTERELVAAITSGGSTYADSVKGRFTISRDNAKNTVYLQMNSLKPEDTAVYYCAASWPRWWRFGYWGQGTQVTVSS” the “polyreactivity (PSR sort gate)” value was “low polyreactivity”. With “QVQLVESGGGLVQAGGSLRLSCAASGSTFPGNALGSYRQAPGKERELVAAIRDRGTSTYYADSVKGRFTISRDNAKNTFYLQMNSLKPEDTAVYYCAASSSNKEYDYWGQGTQVTVSS” the “polyreactivity (PSR sort gate)” value was “high polyreactivity”. For “QVQLVESGGGLVQAGGSLRLSCAASGSTFPGNAMGWYRQAPGKERELVAAINWSGDSTYYADSVKGRFTISRDNAKNTVYLQMNSLKPEDTAVYYCAAYGDGYYYWGQGTQVTVSS”, the “polyreactivity (PSR sort gate)” value was “low polyreactivity”. In the case of “QVQLVESGGGLVQAGGSLRLSCAASGSTFPGNAMGWYRQAPGKERELVASISGGGDSTYYADSVKGRFTISRDNAKNTVYLQMISLKPEDTAVYYCAVDIDSNSGTRDYWGQGTQVTVSS”, the “polyreactivity (PSR sort gate)” value is reported as “low polyreactivity”. With “QVQLVESGGGLVQAGGSLRLSCAASGSTFPGYAMGWYRQAPGKERELVAAGGSTYYADSVKGRFTISRDNAKNTVYLQMNSLKPEDTAVYYCAATWGSVQKGTYYYWGQGTQVTVSS” the “polyreactivity (PSR sort gate)” value was “low polyreactivity”. With “QVQLVESGGGLVQAGGSLRLSCAASGSTFPHYTMGWYRQAPGKERELVAVISRSGRTYYADSVKGRFTISRDNAKNTVYLQMNSLKPEDTAVYYCAVLVGRLVWSYNHWGQGTQVTVSS” the “polyreactivity (PSR sort gate)” value was “high polyreactivity”. For “QVQLVESGGGLVQAGGSLRLSCAASGSTFPKYAMGWYRQAPGKERELVAVITSGGSTYYADSVMGRFTISRDNAKNTVYLQMNSLKPEDTAVYYCAARKYRRFDYWGQGTQVTVSS”, the “polyreactivity (PSR sort gate)” value was “high polyreactivity”. In the case of “QVQLVESGGGLVQAGGSLRLSCAASGSTFPKYGMGWYRQAPGKESEFVARINWNGGGTYYADSVKGRFTISRDNAKNTVYLQMNSLKPEDTAVYYCNARKRGARFILGYDYWGQGTQVTVSS”, the “polyreactivity (PSR sort gate)” value is reported as “low polyreactivity”. In the case of “QVQLVESGGGLVQAGGSLRLSCAASGSTFPLNAMGWYRQAPGKESEFLDAISYRGSSTYYADSVKGRFTISRDNAKNTVYLQMNSLKPEDTAVYYCSANPNTYYYRRGYDYWGQGTQVTVSS”, the “polyreactivity (PSR sort gate)” value is reported as “high polyreactivity”. In the case of “QVQLVESGGGLVQAGGSLRLSCAASGSTFPLYAMGWYRPAPGKEREFVAAINRSTGTTYYADSVKGRFTISRDNAKNTVYLQMNSLKPEDTAVYYCAARVYYRTVLGGYYYWGQGTQVTVSS”, the “polyreactivity (PSR sort gate)” value is reported as “low polyreactivity”. With “QVQLVESGGGLVQAGGSLRLSCAASGSTFPLYTMGWYRQAPGKERELVAAINYGGTSTYYADSVKGRFTISRDNAKNTVYLQMNSLKPEDTAVYYCKQFVPGRYYWGQGTQVTVSS” the “polyreactivity (PSR sort gate)” value was “high polyreactivity”. For “QVQLVESGGGLVQAGGSLRLSCAASGSTFPPNAMGWYRQAPGKERELVAAISFSSGRTYYADSVKGRFTISRDNAKNTVYLQMNSLKPEDTAVYYCAADHGYWGQGTQVTVSS”, the “polyreactivity (PSR sort gate)” value was “low polyreactivity”. For “QVQLVESGGGLVQAGGSLRLSCAASGSTFPPYAMGWYRQAPGKERELVAAITASGGRTYYADSVKGRFTLSRDNAKNTVYLQMNSLKPEDTAVYYCAALRGSTYDYWGQGTQVTVSS”, the “polyreactivity (PSR sort gate)” value was “high polyreactivity”. For “QVQLVESGGGLVQAGGSLRLSCAASGSTFPPYGMGWYRQAPGKERELVASITSGGSTNYADSVKGRFTISRDNAKNTVYLQMNSLKPEDTAVYYCNADLHSHYDYWGQGTQVTVSS”, the “polyreactivity (PSR sort gate)” value was “low polyreactivity”. In the case of “QVQLVESGGGLVQAGGSLRLSCAASGSTFPRNAMGWYRQAPGKERELVAVITGSGGSTYYADSVKGRFTISRDNAKNTVYLQMNSLKPEDTAVYYCNARPTRRTRYDSWGQGTQVTVSS”, the “polyreactivity (PSR sort gate)” value is reported as “high polyreactivity”. With “QVQLVESGGGLVQAGGSLRLSCAASGSTFPRYAMGWYIPAPGNERELVAAISSGGSTYYADSVKGRFTISRDNAKNTVYLQMNSLKPEDTAVYYCNARRSRSRYDYWGQGTQVTVSS” the “polyreactivity (PSR sort gate)” value was “high polyreactivity”. In the case of “QVQLVESGGGLVQAGGSLRLSCAASGSTFPRYAMGWYRQAPGKERELVASITSDGGSTYYADSVKGRFTISRDNAMNTVYLQLNSLKPEDTAVYYCNKVTYRGYRRYGYWGQGTQVTVSS”, the “polyreactivity (PSR sort gate)” value is reported as “high polyreactivity”. With “QVQLVESGGGLVQAGGSLRLSCAASGSTFPRYGMGWYRQAPGKERELVATITNGAITYYADSVKGRFTISRDNAKNTVYLQMNSLKPEDTAVYYCAARHFQVPDYFPEYHYWGQGTQVTVSS” the “polyreactivity (PSR sort gate)” value was “low polyreactivity”. With “QVQLVESGGGLVQAGGSLRLSCAASGSTFPSYAMGWYRQAPGKERELVAAINSGGGTNYADSVKGRFTISRDNAKNTVYLQMNSLKPEDTAVYYCNTDILSIYAEPYYFTDVDYWGQGTQVTVSS” the “polyreactivity (PSR sort gate)” value was “low polyreactivity”. With “QVQLVESGGGLVQAGGSLRLSCAASGSTFPSYAMGWYRQAPGKERELVAAISRSGGSTYYADSVKGRFTISRDNAKNTVYLQMNSLKPEDTAVYYCAARGHLRYESDYWGQGTQVTVSS” the “polyreactivity (PSR sort gate)” value was “high polyreactivity”. For “QVQLVESGGGLVQAGGSLRLSCAASGSTFPSYAMGWYRQAPGKERELVAAITNGGSTTYADSVKGRFTISRDNAKNTVYIQMNSLKPEDTAVYYCAARYYYYYYYIRRDYWGQGTQVTVSS”, the “polyreactivity (PSR sort gate)” value was “low polyreactivity”. For “QVQLVESGGGLVQAGGSLRLSCAASGSTFPSYVMGWYRQAPGKEREMVAAISSSGGRTYYADSVKGRFTISRDNAKNTVYLQMNSLKPEDTAVYYCAAKRGPLVNDHQFWGQGTQVTVSS”, the “polyreactivity (PSR sort gate)” value was “high polyreactivity”. In the case of “QVQLVESGGGLVQAGGSLRLSCAASGSTFPTNTMGWYRQAPGKERELVATIRKSSGRTYYADSVKGRFTISRDNAKNTVYLQMNSLKPEDTAVYYCNARRYSGALRYDYWGQGTQVTVSS”, the “polyreactivity (PSR sort gate)” value is reported as “high polyreactivity”. With “QVQLVESGGGLVQAGGSLRLSCAASGSTFPTYAMGWYRQAPGKERELVAAITSGSGTNTYYADSVKGRFTISRDNAKNTVYLQMNSLKPEDTAVYYCAKSFRKKYGWGQGTQVTVSS” the “polyreactivity (PSR sort gate)” value was “high polyreactivity”. In the case of “QVQLVESGGGLVQAGGSLRLSCAASGSTFPTYAMGWYRQAPGKERELVADITWSGGSTYYADSVKGRFTISRDNAKNTVYLQMNSLKPEDTAVYYCNAAHRKGMYYWGQGTQVTVSS”, the “polyreactivity (PSR sort gate)” value is reported as “high polyreactivity”. For “QVQLVESGGGLVQAGGSLRLSCAASGSTFPTYGMGWYRQAPGKEREFVARINWNGGGTYYADSVKGRFTISRDNAKNTVYLQMNSLKPEDTAVYYCNARKRGARFILGYDYWGQGTQVTVSS”, the “polyreactivity (PSR sort gate)” value was “low polyreactivity”. With “QVQLVESGGGLVQAGGSLRLSCAASGSTFPVNAMGWYIQAPGKERELVARIRGSGGSTYYADSVKGRFTISRDNAKNTVYLQMNSLKPEDTAVYYCNADPVRSGLDYWGQGTQVTVSS” the “polyreactivity (PSR sort gate)” value was “high polyreactivity”. For “QVQLVESGGGLVQAGGSLRLSCAASGSTFPVNAMGWYRQAPGKERELVAAISSRGSSTYYADSVKGRFTISRDNAKNTVYLQMNSLKPVDTAVYYCAAPQRYPRFYYWGQGTQVTVSS”, the “polyreactivity (PSR sort gate)” value was “high polyreactivity”. For “QVQLVESGGGLVQAGGSLRLSCAASGSTFPVNAMGWYRQAPGKERELVAAISSTGTSTYYADSVKGRFTISRDNAKNTVYLQMNSLKPEDTAGYYCAAETWVWGYVLYDYWGQGTQVTVSS”, the “polyreactivity (PSR sort gate)” value was “high polyreactivity”. For “QVQLVESGGGLVQAGGSLRLSCAASGSTFPVNAMGWYRQAPGKEREMVASITWGDGSTYYADSVKGRFTISRDNAKNTVYLQMNSLKPEDTADYYCNKDFFYGYDAASYRPEYDYWGQGTQVTVSS”, the “polyreactivity (PSR sort gate)” value was “low polyreactivity”. In the case of “QVQLVESGGGLVQAGGSLRLSCAASGSTFPVNTMGWYRQAPGKERELVAAISWSGGRTYYADSVKGRFTISRDNAKNTVYLQMNSLKPEDTAVYYCAAEWEGTYTTVPDEFNYWGQGTQVTVSS”, the “polyreactivity (PSR sort gate)” value is reported as “high polyreactivity”. With “QVQLVESGGGLVQAGGSLRLSCAASGSTFPVYAMGWYIQAPGKERELVAAISYSGTRTYYADSVKGRFTISRDNAKNTVYLQMNSLKPEDTAVYYCAADFEGYGQGYGYWGQGTQVTVSS” the “polyreactivity (PSR sort gate)” value was “low polyreactivity”. In the case of “QVQLVESGGGLVQAGGSLRLSCAASGSTFPVYAMGWYRQAPGKERELVAAITSGGSTNYADSVKGRFTISRDNAKNTVYLQMNSLKPEDTAVYYCNAEDIYRKRDFYHRLYDYWGQGTQVTVSS”, the “polyreactivity (PSR sort gate)” value is reported as “low polyreactivity”. With “QVQLVESGGGLVQAGGSLRLSCAASGSTFPVYAMGWYRQAPGKERELVAAITSGGSTYYADSVKGRFTISRDNAKNTVYLQMNSLKPEDTAVYYCAAEDSSPAYNHWGQGTQVTVSS” the “polyreactivity (PSR sort gate)” value was “low polyreactivity”. With “QVQLVESGGGLVQAGGSLRLSCAASGSTFPYNAKGWYRQAPGKERELVAAITTRGSTYYADSVKGRFTISRDNAKNTVYLQMNSLNPEESAVYYCANGPSLWYRSSFRGEGDYWGQGTQVTVSS” the “polyreactivity (PSR sort gate)” value was “low polyreactivity”. For “QVQLVESGGGLVQAGGSLRLSCAASGSTFPYNAMGWYIQAPGKERELVAAISSRGGRTYYADSVKGRFSISRDNAKYTVYLQMNSLKPEDTAVYYCAARVVSRKDMNYWGQGTQVTVSS”, the “polyreactivity (PSR sort gate)” value was “high polyreactivity”. In the case of “QVQLVESGGGLVQAGGSLRLSCAASGSTFPYNAMGWYRQAPGKDRELVAAITWRAGRTYYADSVKGRFTISRDNAKNTVYLQMNSLKPEDTAVYYCAKSYQRGVNHYEYWGQGTQVTVSS”, the “polyreactivity (PSR sort gate)” value is reported as “high polyreactivity”. For “QVQLVESGGGLVQAGGSLRLSCAASGSTFPYNAMGWYRQAPGKEREFVAAITSDDTTNYADSVKGRFTISRDNAKKTVYLQMNSLKPEDTAVYYCAAEYRYPYLRGAGDYWGQGTQVTVSS”, the “polyreactivity (PSR sort gate)” value was “low polyreactivity”. In the case of “QVQLVESGGGLVQAGGSLRLSCAASGSTFPYNAMGWYRQAPGKERELVAAITWRAGRTYYADSVKGRFTSSRDNAKNTVYLQMNSLKPEDTAVYYCAKSYQRGVNHYEYWGQGTQVSVSS”, the “polyreactivity (PSR sort gate)” value is reported as “high polyreactivity”. In the case of “QVQLVESGGGLVQAGGSLRLSCAASGSTFPYNAMGWYRQAPGKERELVATIDRGSTTNYADSVKGRFTISRDNAKNTVYLQMNSLKPEDTAVYYCNAKFIWWYEKGGWNVSKYEYWGQGTQVTVSS”, the “polyreactivity (PSR sort gate)” value is reported as “low polyreactivity”. With “QVQLVESGGGLVQAGGSLRLSCAASGSTFPYNARGWYRQAPGKETELVAAISSSGGSTYYADSVKGRFTISRDNAKNTVYLQMNSLKPVDTEVYYCNAVLRYSIYPSSSFSYVGYYYWGQGTQVSVSS” the “polyreactivity (PSR sort gate)” value was “high polyreactivity”. In the case of “QVQLVESGGGLVQAGGSLRLSCAASGSTFPYYAMGCYRQAPGKERELVAAISWSDANTYYADSVKGRFTISRDNAKNTVYLQMNSLKPEDTAVYYCAAEPYDRYVPYTGYGLNYWGQGTQVTVSS”, the “polyreactivity (PSR sort gate)” value is reported as “low polyreactivity”. In the case of “QVQLVESGGGLVQAGGSLRLSCAASGSTFPYYAMGWYRQAPGKERELVAAISSSGGSTYYADSVKGRFTISRDNAKNTVYLQMNSLKPEDTAVYYCATSSRYVDGYEMDYWGQGTQVSVSS”, the “polyreactivity (PSR sort gate)” value is reported as “high polyreactivity”.
